Experiments:
[1] = molecular target: T1, protein A56 of the oncolytic virus WOTS-418 (vaccinia virus (WOTS-418, Western …, UniProt Q01218 17-314)); experiment: flow cytometry, MCF7 cells treated with WOTS-418
T1 construct: also called WOTS-418-A56; protein A56 variant

[2] = molecular target: T2, protein A56 of the oncolytic virus OTS-412 (vaccinia virus (OTS-412), UniProt P08714 17-315); experiment: flow cytometry, PC3 cells treated with OTS-412
T2 construct: also called OTS-412-A56; protein A56 variant
T2 chain: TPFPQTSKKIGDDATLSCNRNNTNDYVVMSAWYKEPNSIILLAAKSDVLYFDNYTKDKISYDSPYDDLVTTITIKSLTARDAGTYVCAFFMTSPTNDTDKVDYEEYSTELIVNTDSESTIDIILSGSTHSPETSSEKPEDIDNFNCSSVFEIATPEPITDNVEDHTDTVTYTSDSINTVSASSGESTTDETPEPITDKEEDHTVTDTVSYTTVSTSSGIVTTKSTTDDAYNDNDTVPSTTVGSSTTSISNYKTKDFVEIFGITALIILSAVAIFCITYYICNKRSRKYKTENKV

[3] = molecular target: T1, protein A56 of the oncolytic virus …; experiment: flow cytometry, PC3 cells treated with WOTS-418 (overlay, FIG. 75)
[4] = molecular target: T2, protein A56 of the oncolytic virus …; experiment: flow cytometry, MCF7 cells treated with OTS-412
[5] = molecular target: T2, protein A56 of the oncolytic virus …; experiment: flow cytometry, PC3 cells treated with OTS-412 (overlay, FIG. 74)
[6] = molecular target: T1, protein A56 of the oncolytic virus …; experiment: flow cytometry, PC3 cells treated with WOTS-418

B1: A56-02B08 (Ab16) (antibody, V domains shown)
VH: QVQLQQSGPGLVKPSQTLSLTCAISGDSVSSNSAAWNWIRQSPSRGLEWLGRTYYRSKWYNDYAVSVKSRITINPDTSKNQFSLQLNSVTAVDTAVYYCAKSYAGPISYYYYGLDVWGQGTTVTVSS
VL: QSALTQPASVSGSPGQSVTISCTGTSSDIGRYNLVSWYQQHPGKAPKLMIYGGSKRPSGVSNRFSGSNSDNTASLTISGLRAEDEADYYCSSYASSSTPYVFGTGTKVTVL
binding signal (flow cytometry, %) [1]: ≥ 80%
binding signal (flow cytometry, %) [2]: ≥ 70%
binding signal (flow cytometry, %) [3]: ≥ 60%
binding signal (flow cytometry, %) [4]: ≥ 80%
binding signal (flow cytometry, %) [5]: ≥ 60%
binding signal (flow cytometry, %) [6]: ≥ 70%

Source: patent publication US20220389085A1 (BIONOXX, published 2022)
